Target: T1, LtrA (Lactococcus lactis) (UniProt P0A3U0)
T1 sequence: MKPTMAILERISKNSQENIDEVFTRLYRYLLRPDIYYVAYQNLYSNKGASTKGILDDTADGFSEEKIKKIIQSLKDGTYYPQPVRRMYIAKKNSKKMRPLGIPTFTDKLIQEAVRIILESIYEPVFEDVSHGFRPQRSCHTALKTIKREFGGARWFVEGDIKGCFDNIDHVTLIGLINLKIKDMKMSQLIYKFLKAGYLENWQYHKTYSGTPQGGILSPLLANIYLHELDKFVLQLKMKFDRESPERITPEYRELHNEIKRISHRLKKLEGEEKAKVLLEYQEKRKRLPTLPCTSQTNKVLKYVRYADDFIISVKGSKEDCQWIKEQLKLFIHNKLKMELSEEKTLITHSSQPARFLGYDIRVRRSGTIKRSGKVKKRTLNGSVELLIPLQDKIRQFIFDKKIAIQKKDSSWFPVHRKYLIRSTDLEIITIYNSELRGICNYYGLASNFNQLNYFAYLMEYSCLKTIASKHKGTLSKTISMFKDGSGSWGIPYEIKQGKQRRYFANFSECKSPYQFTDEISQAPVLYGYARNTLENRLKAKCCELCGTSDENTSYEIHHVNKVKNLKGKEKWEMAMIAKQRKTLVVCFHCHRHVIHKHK
Test: cleavage_in_vitro

Ll.ltrB intron RNA ; ltrB +2 to +5 TGCG
binding signal: < 10 % of WT

Reference: patent publication US20020086323
